The values that follow come from IntAct's records for PubMed 24480479.

The labels stand for the following.
B1: Focal adhesion kinase 1 (Rattus norvegicus (Rat)), O35346 (parent)
chain: MAAAYLDPNLNHTPSSSTKTHLGTGTERSPGAMERVLKVFHYFESSNEPTTWASIIRHGDATDVRGIIQKIVDSHKVKHVACYGFRLSHLRSEEVHWLHVDMGVSSVREKYELAHPPEEWKYELRIRYLPKGFLNQFTEDKPTLNFFYQQVKSDYMLEIADQVDQDIALKLGCLEIRRSYWEMRGNALEKKSNYEVLEKDVGLKRFFPKSLLDSVKAKTLRKLIQQTFRQFANLNREESILKFFEILSPVYRFDKECFKCALGSSWIISVELAIGPEEGISYLTDKGCNPTHLADFNQVQTIQYSNSEDKDRKGMLQLKIAGAPEPLTVTAPSLTIAENMADLIDGYCRLVNGATQSFIIRPQKEGERALPSIPKLANNEKQGMRTHAVSVSETDDYAEIIDEEDTYTMPSTRDYEIQRERIELGRCIGEGQFGDVHQGVYLSPENPALAVAIKTCKNCTSDSVREKFLQEALTMRQFDHPHIVKLIGVITENPVWIIMELCTLGELRSFLQVRKYSLDLASLILYAYQLSTALAYLESKRFVHRDIAARNVLVSSNDCVKLGDFGLSRYMEDSTYYKASKGKLPIKWMAPESINFRRFTSASDVWMFGVCMWEILMHGVKPFQGVKNNDVIGRIENGERLPMPPNCPPTLYSLMTKCWAYDPSRRPRFTELKAQLSTILEEEKVQQEERMRMESRRQATVSWDSGGSDEAPPKPSRPGYPSPRSSEGFYPSPQHMVQTNHYQISGYPGSHGIPAMAGSIYPGQASLLDQTELWNHRPQEMSMWQPSVEDSAALDLRGMGQVLPPHLMEERLIRQQQEMEEDQRWLEKEERFLKPDVRLSRGSIDREDGSFQGPTGNQHIYQPVGKPDPAAPPKKPPRPGAPGHLSNLSSISSPAESYNEGVKPWRLQPQEISPPPTANLDRSNDKVYENVTGLVKAVIEMSSKIQPAPPEEYVPMVKEVGLALRTLLATVDETIPILPASTHREIEMAQKLLNSDLGELISKMKLAQQYVMTSLQQEYKKQMLTAAHALAVDAKNLLDVIDQARLKMLGQTRPH

The variants in the assay derive from B1. The following applies: with paxi_mouse Pxn.
Turning to W266A, the “effect of a mutation on the interaction” value is recorded as “disrupting interaction”.
